Results: patent publication US20230203470A1 (published 2023)

Biological target: the molecule itself
Experiment: size-exclusion chromatography of anti-FLAG affinity purified protein (self-association into a homodimer)
Experimental: Batch purification was performed using an anti-FLAG M2 affinity resin (Sigma-Aldrich, St. Louis, Mo., Cat. No. A2220), following the manufacturer's instructions. ADA2 were eluted from the resin using FLAG™ peptide. Purity of the eluted protein was assessed using SDS-PAGE and size-exclusion chromatography (SEC).

B1: WT recombinant human ADA2-FLAG polypeptide (enzyme)
chain: IDETRAHLLLKEKMMRLGGRLVLNTKEELANERLMTLKIAEMKEAMRTLIFPPSMHFFQAKHLIERSQVFNILRMMPKGAALHLHDIGIVTMDWLVRNVTYRPHCHICFTPRGIMQFRFAHPTPRPSEKCSKWILLEDYRKRVQNVTEFDDSLLRNFTLVTQHPEVIYTNQNVVWSKFETIFFTISGLIHYAPVFRDYVFRSMQEFYEDNVLYMEIRARLLPVYELSGEHHDEEWSVKTYQEVAQKFVETHPEFIGIKIIYSDHRSKDVAVIAESIRMAMGLRIKFPTVVAGFDLVGHEDTGHSLHDYKEALMIPAKDGVKLPYFFHAGETDWQGTSIDRNILDALMLNTTRIGHGFALSKHPAVRTYSWKKDIPIEVCPISNQVLKLVSDLRNHPVATLMATGHPMVISSDDPAMFGAKGLSYDFYEVFMGIGGMKADLRTLKQLAMNSIKYSTLLESEKNTFMEIWKKRWDKFIADVATKDYKDDDDK
notes: The only entry describes two identical subunits associating into the homodimer seen by SEC; Expressed in CHO-S cells and purified on anti-FLAG M2 resin; also called rHuADA2; rHuADA2-FLAG
B1: binds.
